Measured values taken from patent publication US20200157212A1 (Pfizer, published 2020).

Biological target: T1, Terbium (Tb) labeled-SNAP tagged ROBO2 expressed on HEK293 cells (Homo sapiens (Human), UniProt Q9HCK4 22-1378, terbium label on the SNAP tag)
T1 construct: also called Tb-labeled ROBO2 cells; ROBO2 expressing cells; not shown: SNAP tag
T1 sequence: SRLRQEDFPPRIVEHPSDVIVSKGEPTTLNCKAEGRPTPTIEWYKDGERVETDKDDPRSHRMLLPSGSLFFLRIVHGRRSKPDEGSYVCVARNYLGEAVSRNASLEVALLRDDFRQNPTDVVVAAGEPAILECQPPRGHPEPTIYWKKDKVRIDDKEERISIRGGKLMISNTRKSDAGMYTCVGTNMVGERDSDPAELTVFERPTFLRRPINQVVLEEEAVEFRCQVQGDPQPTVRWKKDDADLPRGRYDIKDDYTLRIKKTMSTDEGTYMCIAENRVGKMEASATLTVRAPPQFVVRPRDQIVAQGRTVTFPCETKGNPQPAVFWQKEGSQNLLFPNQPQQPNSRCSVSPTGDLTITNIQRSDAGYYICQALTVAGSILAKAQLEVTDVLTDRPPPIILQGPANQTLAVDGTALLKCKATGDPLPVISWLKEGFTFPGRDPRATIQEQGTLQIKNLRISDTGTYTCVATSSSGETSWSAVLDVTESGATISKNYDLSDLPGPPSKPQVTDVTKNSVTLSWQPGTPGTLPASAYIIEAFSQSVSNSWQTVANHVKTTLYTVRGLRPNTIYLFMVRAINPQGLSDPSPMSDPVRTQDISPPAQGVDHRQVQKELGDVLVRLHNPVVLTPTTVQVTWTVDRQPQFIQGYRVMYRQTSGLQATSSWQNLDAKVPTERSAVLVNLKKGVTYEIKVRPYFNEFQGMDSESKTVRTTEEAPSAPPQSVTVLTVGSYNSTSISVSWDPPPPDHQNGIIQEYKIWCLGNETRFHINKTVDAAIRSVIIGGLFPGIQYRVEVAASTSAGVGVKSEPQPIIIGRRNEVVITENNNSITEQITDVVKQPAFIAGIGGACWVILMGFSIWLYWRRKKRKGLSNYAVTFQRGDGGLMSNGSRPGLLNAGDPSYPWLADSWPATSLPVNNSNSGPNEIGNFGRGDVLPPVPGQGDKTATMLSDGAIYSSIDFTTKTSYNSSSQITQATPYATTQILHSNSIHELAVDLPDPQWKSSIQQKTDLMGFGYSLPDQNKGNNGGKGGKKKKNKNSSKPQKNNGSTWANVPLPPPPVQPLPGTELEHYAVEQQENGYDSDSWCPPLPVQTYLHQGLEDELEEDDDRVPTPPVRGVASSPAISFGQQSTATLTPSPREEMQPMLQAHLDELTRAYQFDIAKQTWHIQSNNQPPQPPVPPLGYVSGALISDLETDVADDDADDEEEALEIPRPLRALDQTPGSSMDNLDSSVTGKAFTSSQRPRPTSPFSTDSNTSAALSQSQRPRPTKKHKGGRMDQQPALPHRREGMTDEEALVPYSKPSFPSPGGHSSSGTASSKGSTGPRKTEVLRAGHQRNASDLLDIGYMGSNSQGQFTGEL
Test: HTRF, 5 nM d2-SLIT2-N on Tb-SNAP-ROBO2 HEK293 cells, no antibody (maximal signal)
Procedure: In this assay, terbium (Tb) labeled-SNAP tagged ROBO2 expressing HEK293 cells were incubated with 5 nM d2-labeled SLIT-2N in the presence of 1 nM anti-ROBO2 antibodies for 1 hour. After incubation, fluorescence at 665 nm and 620 nm was measured on an Envision multilabel plate reader. […] Maximal signal was defined as the HTRF ratio of Tb-labeled ROBO2 cells with d2-labeled SLIT2-N in the absence of antibody, the minimum signal was defined as the HTRF ratio of Tb-labeled ROBO2 expressing HEK293 cells only. One nanomolar (nM) parental antibody, 93H2, was unable to block the HTRF assay, therefore this concentration was selected to identify clones with a higher affinity than 93H2 (Table 2, HTRF Ratio column). […] Antibodies derived from chain (Abcs series) or CDR shuffling (CTIR-2 series) were evaluated in 11-point, 5-fold dilution series with a top concentration of 1500 nM (Table 2 HTRF IC₅₀).
HTRF assays were run with 5 nM d2-labeled SLIT2-N and antibodies were added at 1 nM. […] Antibodies derived from chain (Abcs series) or CDR shuffling (CTIR-2 series) were evaluated in 11-point, 5-fold dilution series with a top concentration of 1500 nM, N.T. = not tested; ^cFold selectivity was calculated as Geometric Mean Fluorescent Intensity (Geo MFI) of ROBO2/Geo MFI of ROBO1 binding.

B1: SLIT2-N (ligand)
chain: QCSCSGSTVDCHGLALRSVPRNIPRNTERLDLNGNNITRITKTDFAGLRHLRVLQLMENKISTIERGAFQDLKELERLRLNRNHLQLFPELLFLGTAKLYRLDLSENQIQAIPRKAFRGAVDIKNLQLDYNQISCIEDGAFRALRDLEVLTLNNNNITRLSVASFNHMPKLRTFRLHSNNLYCDCHLAWLSDWLRQRPRVGLYTQCMGPSHLRGHNVAEVQKREFVCSGHQSFMAPSCSVLHCPAACTCSNNIVDCRGKGLTEIPTNLPETITEIRLEQNTIKVIPPGAFSPYKKLRRIDLSNNQISELAPDAFQGLRSLNSLVLYGNKITELPKSLFEGLFSLQLLLLNANKINCLRVDAFQDLHNLNLLSLYDNKLQTIAKGTFSPLRAIQTMHLAQNPFICDCHLKWLADYLHTNPIETSGARCTSPRRLANKRIGQIKSKKFRCSAKEQYFIPGTEDYRSKLSGDCFADLACPEKCRCEGTTVDCSNQKLNKIPEHIPQYTAELRLNNNEFTVLEATGIFKKLPQLRKINFSNNKITDIEEGAFEGASGVNEILLTSNRLENVQHKMFKGLESLKTLMLRSNRITCVGNDSFIGLSSVRLLSLYDNQITTVAPGAFDTLHSLSTLNLLANPFNCNCYLAWLGEWLRKKRIVTGNPRCQKPYFLKEIPIQDVAIQDFTCDDGNDDNSCSPLSRCPTECTCLDTVVRCSNKGLKVLPKGIPRDVTELYLDGNQFTLVPKELSNYKHLTLIDLSNNRISTLSNQSFSNMTQLLTLILSYNRLRCIPPRTFDGLKSLRLLSLHGNDISVVPEGAFNDLSALSHLAIGANPLYCDCNMQWLSDWVKSEYKEPGIARCAGPGEMADKLLLTTPSKKFTCQGPVDVNILAKCNPCLSNPCKNDGTCNSDPVDFYRCTCPYGFKGQDCDVPIHACISNPCKHGGTCHLKEGEEDGFWCICADGFEGENCEVNVDDCEDNDCENNSTCVDGINNYTCLCPPEYTGELCEEKLDFCAQDLNPCQHDSKCILTPKGFKCDCTPGYVGEHCDIDFDDCQDNKCKNGAHCTDAVNGYTCICPEGYSGLFCEFSPPMVLPRTSPCDNFDCQ
modifications: d2 label in the HTRF assay
notes: also called d2-labeled SLIT2-N
  HTRF Ratio: 11900
